Patent US20220411487A1
Each block holds one substance with its values, some of them ahead of it.

Experiments:
[1] = molecular target: catalytically inactive full length human TMPRSS6 on HEK293 cells (HEK293/hTMPRSS6 (S762A)) (human) (UniProt Q8IU80); experiment: flow cytometry, HEK293 cells expressing target, secondary alone
[2] = molecular target: full length mouse TMPRSS6 on HEK293 cells (HEK293/mTMPRSS6) (mouse) (UniProt Q9DBI0); experiment: as above
[3] = molecular target: full length human TMPRSS6 on HEK293 cells (HEK293/hTMPRSS6) (human) (UniProt Q8IU80); experiment: as above
Sequence of full length human TMPRSS6 on HEK293 cells (HEK293/hTMPRSS6) (human) (Q8IU80 10-811 limits assumed): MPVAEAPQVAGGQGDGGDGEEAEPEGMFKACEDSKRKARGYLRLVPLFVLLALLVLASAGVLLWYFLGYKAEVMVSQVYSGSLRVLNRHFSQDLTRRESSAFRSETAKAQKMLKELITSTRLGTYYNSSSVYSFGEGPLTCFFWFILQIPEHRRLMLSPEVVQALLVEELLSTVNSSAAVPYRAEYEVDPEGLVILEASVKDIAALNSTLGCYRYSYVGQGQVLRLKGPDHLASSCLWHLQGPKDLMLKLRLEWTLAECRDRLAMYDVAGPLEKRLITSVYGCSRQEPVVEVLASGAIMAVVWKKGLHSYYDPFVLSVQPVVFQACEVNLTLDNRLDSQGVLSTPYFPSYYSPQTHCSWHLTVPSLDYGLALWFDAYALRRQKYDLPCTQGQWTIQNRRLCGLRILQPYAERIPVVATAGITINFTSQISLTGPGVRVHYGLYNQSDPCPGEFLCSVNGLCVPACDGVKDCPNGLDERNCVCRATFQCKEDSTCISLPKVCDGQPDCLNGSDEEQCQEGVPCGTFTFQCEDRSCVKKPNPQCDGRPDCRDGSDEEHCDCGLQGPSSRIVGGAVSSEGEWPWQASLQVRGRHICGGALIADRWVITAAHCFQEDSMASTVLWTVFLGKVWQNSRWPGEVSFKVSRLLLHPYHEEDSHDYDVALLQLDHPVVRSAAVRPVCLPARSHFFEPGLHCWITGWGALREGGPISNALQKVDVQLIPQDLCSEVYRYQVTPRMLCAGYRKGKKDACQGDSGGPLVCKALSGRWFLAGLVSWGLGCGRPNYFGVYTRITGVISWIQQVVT

[4] = molecular target: full length cynomolgous monkey TMPRSS6 on HEK293 cells (HEK293/mfTMPRSS6) (cynomolgous monkey/Macaca fascicularis); experiment: as above
Sequence of full length cynomolgous monkey TMPRSS6 on HEK293 cells (HEK293/mfTMPRSS6) (cynomolgous monkey/Macaca fascicularis) (Q8IU80 other isoform, or with tags, fused parts or gaps): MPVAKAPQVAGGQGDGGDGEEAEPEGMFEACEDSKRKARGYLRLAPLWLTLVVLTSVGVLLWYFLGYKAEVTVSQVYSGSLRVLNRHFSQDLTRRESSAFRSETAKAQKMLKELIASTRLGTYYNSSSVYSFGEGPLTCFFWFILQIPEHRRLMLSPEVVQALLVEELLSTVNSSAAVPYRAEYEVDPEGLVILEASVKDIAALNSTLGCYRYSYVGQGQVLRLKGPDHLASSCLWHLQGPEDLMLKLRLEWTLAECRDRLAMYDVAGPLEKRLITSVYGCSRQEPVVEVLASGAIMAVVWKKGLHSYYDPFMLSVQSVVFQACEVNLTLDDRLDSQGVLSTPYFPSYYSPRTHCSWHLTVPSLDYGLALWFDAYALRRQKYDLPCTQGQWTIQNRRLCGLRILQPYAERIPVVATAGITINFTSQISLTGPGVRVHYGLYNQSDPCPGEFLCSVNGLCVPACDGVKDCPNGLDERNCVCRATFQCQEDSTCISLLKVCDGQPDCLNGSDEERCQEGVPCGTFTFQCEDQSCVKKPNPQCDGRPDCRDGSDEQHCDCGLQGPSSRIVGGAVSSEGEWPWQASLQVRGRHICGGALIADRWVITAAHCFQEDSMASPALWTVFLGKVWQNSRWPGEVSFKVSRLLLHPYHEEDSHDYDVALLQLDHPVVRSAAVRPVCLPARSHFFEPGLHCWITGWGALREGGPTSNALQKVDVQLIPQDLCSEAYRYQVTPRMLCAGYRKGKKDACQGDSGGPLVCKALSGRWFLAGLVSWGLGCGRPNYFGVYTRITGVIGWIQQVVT

[5] = molecular target: full-length mouse TMPRSS6 with a C-terminal triple myc tag on HEK293.hHJV cells (HEK293.hHJV/3xMyc.mTMPRSS6) (mouse) (UniProt Q9DBI0); experiment: cell-based or functional assay
[6] = molecular target: full length human TMPRSS6 with a C-terminal triple myc tag on HEK293.hHJV cells (HEK293.hHJV/3xMyc.hTMPRSS6) (human) (UniProt Q8IU80); experiment: cell-based or functional assay
[7] = molecular target: catalytically inactive full length human TMPRSS6 on HEK293 cells (HEK293/hTMPRSS6 (S762A)) (human) (UniProt Q8IU80); experiment: flow cytometry, HEK293 cells expressing target
[8] = molecular target: full length mouse TMPRSS6 on HEK293 cells (HEK293/mTMPRSS6) (mouse) (UniProt Q9DBI0); experiment: flow cytometry, HEK293 cells expressing target
[9] = molecular target: full length human TMPRSS6 on HEK293 cells (HEK293/hTMPRSS6) (human) (UniProt Q8IU80); experiment: flow cytometry, HEK293 cells expressing target
[10] = molecular target: full length cynomolgous monkey TMPRSS6 on HEK293 cells (HEK293/mfTMPRSS6) (cynomolgous monkey/Macaca fascicularis); experiment: flow cytometry, HEK293 cells expressing target

Sequence of full length mouse TMPRSS6 on HEK293 cells (HEK293/mTMPRSS6) (mouse) (Q9DBI0 whole entry): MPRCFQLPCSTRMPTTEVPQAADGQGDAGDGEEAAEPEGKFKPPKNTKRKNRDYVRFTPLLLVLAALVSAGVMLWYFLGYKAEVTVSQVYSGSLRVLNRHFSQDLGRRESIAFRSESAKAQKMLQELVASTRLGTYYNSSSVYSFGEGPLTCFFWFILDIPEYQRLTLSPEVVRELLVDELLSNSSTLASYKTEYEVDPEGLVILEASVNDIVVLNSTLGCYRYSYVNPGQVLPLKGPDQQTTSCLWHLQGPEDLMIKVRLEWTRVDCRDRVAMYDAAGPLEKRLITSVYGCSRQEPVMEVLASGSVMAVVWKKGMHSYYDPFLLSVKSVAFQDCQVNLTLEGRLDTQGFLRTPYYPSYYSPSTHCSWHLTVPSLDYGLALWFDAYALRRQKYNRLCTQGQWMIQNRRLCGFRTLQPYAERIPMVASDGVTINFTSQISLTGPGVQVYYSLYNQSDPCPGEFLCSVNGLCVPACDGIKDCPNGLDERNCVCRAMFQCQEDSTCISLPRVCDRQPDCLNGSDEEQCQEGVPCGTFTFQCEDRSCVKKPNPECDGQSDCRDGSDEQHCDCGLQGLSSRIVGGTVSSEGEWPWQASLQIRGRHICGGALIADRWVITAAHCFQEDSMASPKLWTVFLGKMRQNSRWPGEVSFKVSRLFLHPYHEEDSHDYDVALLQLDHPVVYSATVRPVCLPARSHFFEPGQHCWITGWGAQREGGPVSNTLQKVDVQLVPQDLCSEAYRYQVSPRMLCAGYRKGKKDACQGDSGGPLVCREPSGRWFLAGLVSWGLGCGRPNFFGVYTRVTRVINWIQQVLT
Sequence of catalytically inactive full length human TMPRSS6 on HEK293 cells (HEK293/hTMPRSS6 (S762A)) (human) (Q8IU80 10-811 S762A): as the sequence (Q8IU80 10-811 limits assumed) above, with S753A counted along it

Max. Fold Binding (fold over unstained control) [1]: 2
Max. Fold Binding (fold over unstained control) [2]: 1
Max. Fold Binding (fold over unstained control) [3]: 1
Max. Fold Binding (fold over unstained control) [4]: 1
Substance: Alexa Fluor-647 conjugated anti-human secondary antibody (Jackson ImmunoResearch #109-607-003)

Geometric Mean Fluorescence Intensity of cell surface hHJV [5]: 7750
Inhibition (%) of soluble hHJV release (ELISA) [5]: 5.2%
Median Fluorescence Intensity of cell surface hHJV [5]: 7230
Geometric Mean Fluorescence Intensity of cell surface hHJV [6]: 11700
Inhibition (%) of soluble hHJV release (ELISA) [6]: 15.7%
Median Fluorescence Intensity of cell surface hHJV [6]: 13000
Substance: Isotype Control (antibody)

Max. Fold Binding (fold over unstained control) [7]: 3
Max. Fold Binding (fold over unstained control) [8]: 1
Max. Fold Binding (fold over unstained control) [9]: 1
Max. Fold Binding (fold over unstained control) [10]: 1
Substance: hIgG Subclass Control (antibody)
